Data published in patent publication US20200164020A1.

Biological target: IFNβ in spent medium of HEp-2 cells transfected with siPUM1 (UniProt P01574)
Test: cell-based or functional assay

Chain of UniProt P01574 (P01574 22-187 limits assumed): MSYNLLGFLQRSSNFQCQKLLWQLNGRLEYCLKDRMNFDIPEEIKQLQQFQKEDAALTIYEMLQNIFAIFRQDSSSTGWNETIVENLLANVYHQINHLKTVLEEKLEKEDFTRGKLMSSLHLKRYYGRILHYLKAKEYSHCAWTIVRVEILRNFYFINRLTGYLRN

anti-IFNβ antibody (R&D Systems, MAB814-100)
accumulation of HSV-1 viral proteins (immunoblot) in HEp-2 cells exposed to siPUM1 spent medium pre-incubated with antibody, IFN neutralization assay: 2 to 4 fold
